Reference: publication PMC8769338 (PLoS Pathogens, 2022)
Values joined by “and” are separate entries in the source; they are usually repeats but may differ in a detail not shown here. Identical values can stand only once.

Experiments:
Conditions in all cases: both partners purified
[1] = biological target: LC/A2, strep-tag fusion protein (Clostridium botulinum, BoNT/A2 (strain …, UniProt Q45894, strain)); assay: ELISA
[2] = biological target: T1, LC/B1 (light chain protease domain of BoNT/B1), as used in the ELISAs of Table 2 (Clostridium botulinum, BoNT/B1, UniProt P10844); assay: ELISA
[3] = biological target: T1, LC/B1 (light chain protease domain of …); assay: ELISA; dilution ELISA of VHH on LC/B coated to Nunc plastic
[4] = biological target: LC/A1 (light chain protease domain of BoNT/A1), as used in the ELISAs of Table 1 (Clostridium botulinum, BoNT/A1, UniProt P0DPI0); assay: ELISA

B1: JPU-C10 (VHH)
VHH: QLQLVESGGGLVQPGGSLRLSCAASGNIFSIYYMGWYRQAPGKQREMVAIINSNGITNYGDFVKGRFTISRDNAENSAYLQMNNLTPEDTAVYYCNAGKLRRTTGWGLDDYWGQGTQVTVSS
notes: form of the ELISAs; source: pET-32 vector, thioredoxin fusion, purified
- binding result [1]: binds

B2: JND-E5 (VHH)
VHH: QVQLVESGGLVQPGGSLRLSCAASGFTLDYYGIGWVRQAPGKEREEVSCITSGGLTNYPDSVKGRFTISRDNAKNTVYLQMNSLKPEDTAVYYCAIDRVGVCAMEDFGSWGQGTQVTVSS
notes: source: pET-32 vector, thioredoxin fusion, purified
- EC50 [2]: 5 nM and 2 nM

B3: BLc-B10 (VHH)
VHH: QLQLVESGGGMVQPGGSLRLSCAASGFTFSTYDMSWVRQAPGKGPEWVSIINAGGGSTYYAASVKGRFAISRDNAKNTLYLQMNNLKPEDTALYYCARVASYYCRGYVCSPPEFDYWGQGTQVTVSS
notes: as for B2
- EC50 [2]: 5 nM and 10 nM
- EC50 [3]: 0.3 nM

B4: JND-E9 (VHH)
VHH: QVQLVETGGGLVQAGDSLRLSCAASGRTFNYYAMAWFRQAPGKEREFVAFINWSGDSTYYAGSVKGRFTISRDNAKNTVYLQMNNLKPEDTAVYSCAAEFGTFSYLQGDDYSYWGQGTQVTVSS
notes: as for B2
- EC50 [2]: 1 nM and 0.5 nM

B5: JPU-A5 (VHH)
VHH: QVQLVETGGGLVQAGGSLRLSCTASGADFSFYAMGWYRQTPGNSRELVAVMNLNGVISYGDSARGRFDISRDGTKNIVFLQMNSLKPEDTGVYYCNGMRLYTRGSVRHPESWGQGIQVTVSS
notes: as for B1
- binding result [1]: binds

B6: JND-B4 (VHH)
VHH: QVQLVETGGGLVQPGGSLRLSCVASGFTLDSYAIGWFRQAPGKEREGVSCMSSGDGSTYYTNSVKGRFTISRDNAQNTVYLQMNSLKPEDTAVYYCAADGFDYCSAYVPGRGMNYSGKGTLVTVSS
notes: as for B2
- EC50 [2]: 0.8 nM and 0.5 nM

B7: ciA-D1 (VHH)
VHH: QVQLVESGGGLVQPGGSLRLSCATSGFTLEYYAIGWFRQAPGKGREGVACMNSSGGGTNYADSVKGRFTISRDNAKKMVYLQMNSLKSEDTAVYYCVVDDFRCGSRWAAYLRSSWGQGTQVTVSS
notes: as for B2
- EC50 [4]: 1 nM and 0.4 nM

B8: JLO-G7 (VHH)
VHH: QVQLVESGGGLVQAGGSLRLSCAASGFPFGSYYMSWVRQAPGKGPEWVSDISNGGIITRYSDSVKGRFTISRDNAKNILYLQMNSLKPEDTALYFCATGTGRDWSREYRGQGTQVTVSS
notes: as for B2
- EC50 [2]: 0.5 nM

B9: JPU-G11 (VHH)
VHH: QLQLVETGGGLVQPGGSLRLACVASESVFEMYTVAWYRQAPGKQRELVAGITDEGRTNYADFVKGRFTISRDNSKKTVHLQMDNLNPEDTAVYYCKLEHDLGYYDYWGQGTQVTVSS
notes: as for B1
- EC50 [4]: 1 nM and 0.5 nM
